According to the supplement of paper PMC9170038:

Legend:
[1] = system: MS2 coat protein; assay: apparent KD of MS2 coat protein, switch ON state; designed switch direction (-1 OFF switch, 1 ON switch): 1; higher = weaker reporter binding; details: FMN input: 0 or 200 uM; Eterna round: R93 (includes R88 designs)
Outline: (§1)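 Titrations with SNAP-549-labelled MS2 coat protein ran in twofold steps from 0.7 or 1.5 nM to 3 µM, each step taking 0.8–1.5 h at the start and 10–20 min toward the end. The targets were designed RNA switches transcribed on-chip from Illumina sequencing clusters, held in 100 mM Tris-HCl pH 7.5, 80 mM KCl, 4 mM MgCl2, without or with constant ligand. Apparent KD was taken per design as the median of normalised cluster binding-curve fits.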

[2] = system: MS2 coat protein; assay: apparent KD of MS2 coat protein, switch OFF state (with FMN for OFF switches, without FMN for ON switches); designed switch direction (-1 OFF switch, 1 ON switch): 1; higher = weaker reporter binding; details: FMN input: 0 or 200 uM; Eterna round: R93 (includes R88 designs)
Outline: as §1

Sequence | apparent KD of MS2 coat protein [1] | apparent KD of MS2 coat protein [2]
AAAAACAUGGUGCAGGAUAUAUUAAUAGUCACAUGAGGAUCACCCAUGUUCAUUUAUAUGAACGAGUAGAAGGGCGAUGAAAAAA [Mat - Same state - Malcolm Mod - D111] | 247 nM | 410 nM
GAGAGACAUGAGGAUCACCCAUGUAGGAUUAUGGGAGGAUAUACAAAGACGAGAGUCAGAGUAGAAGGCCUAGGAC [salish99-ss1-140] | 23.4 nM | 56.7 nM
GGGAAGAAGAGAGAGGAUAUCCAAAGGAAAACAUGAGGAUCACCCAUGUAAAAGGAAGGAAAUUGGGAGAAGGCUCAAAAGAGGA [salish99-ss2-025] | 21.6 nM | 51.6 nM
AGAAAUAAAAAUGAGGAUAUGCAAAAGAAAACAUGAGGAUCACCCAUGUAAAAGAAAAUAAAUGGGCAGAAGGCAUGAAAUAAAGA [Helter Skelter 3] | 33.8 nM | 75.1 nM
UACAGACAUGAGGAUCACCCAUGUAGAAUUAUGGGAGGAUAUACAAAGACGAGAGUCAGAGUAGAAGGCCUAGGAG [salish99-ss1-165] | 25.2 nM | 56.9 nM
GAAAAACAUGAGGAUCACCCAUGUAGAAAUAUGGGAGGAUAUACGAAGACGAAAGUCAAAGUAGAAGGCCUAAGAA [Mat - Same State 1 - Eli mod - D109] | 21.7 nM | 87.8 nM
CGGAGACAUGAGGAUCACCCAUGUGAGAAGAGGCGAGGAUAUCGAAAGAAAGAAGAGAAACGAGAAGGCGCGAGCU [salish99-SS1-072] | 23.1 nM | 27.6 nM
AUAAUAAACUGUGAGGAUAUCCAUAAUAAAACAUGAGGAUCACCCAUGUGUAGAUAAUAAUAAUGGGAGAAGGCACAUAAUAAUA [Mat - Same state - Mayanna Mod - D102] | 19.6 nM | 26.2 nM
AAGAAACAUGAGGAUCACCCAUGUAAUAAUAUGGGAGGAUAUACAAGGACGUAAGUCAAGGUAGAAGGCCUAAGAA [Mat - Same State 1 - Meechl mod - D141] | 21 nM | 137 nM
AAAAAACAUGAGGAUCACCCAUGUAAUACAACAUCAGGAUAUUGGCUUGACUAUGUCUUACAAGAAGGGAUGAAAA [Same State 1.3d (Same State 1 - Omei 2 )] | 30.5 nM | 81.5 nM
AAAUAACAUGAGGAUCACCCAUGUUGCAACGGUACAGGAUAUGUGGGUGAAAAUAGCAUGACAGAAGGGUAGUGUA [SameState1 Malc#30] | 207 nM | 150 nM
AAAUAAAUGACUAAGGAUAUAUCGAAGAAAACAUGAGGAUCACCCAUGUGAUAAUAAAAAGGGUGGUAGAAGGUAGUCAACAAAC [Mod 4 of Pariah 4 by Hyphema in Round 1] | 50.2 nM | 88 nM
AUAAAAUAAAUUGAGGAUAUCUAUAAUAAAACAUGAGGAUCACCCAUGUUUAAACAAAGAUCAUGGGAGAAGGCAGAAAAUAAAU [SS2 M 37] | 12.5 nM | 20.6 nM
AACUAACAUGAGGAUCACCCAUGUUACAGCAGUUGAGGAUAUGUGGGUGAAAAUAGCAUGGCAGAAGGCGAGUGUA [SameState1 Malc#24] | 53.9 nM | 127 nM
GAAAAACAUGAGGAUCACCCAUGUCAAUAUAUGGGAGGAUAUACAAAGACGAAAGUCAAAGUAGAAGGCCUAAAAG | 18.3 nM | 66.4 nM
AAAAGACAUGAGGAUCACCCAUGUCAAAACAUAGGAGGAUAUGUCUGGAAAAAAGACUGGACAGAAGGCCUUUGUC [SS1 - 59] | 15.5 nM | 18.9 nM
AGAAAACAUGAGGAUCACCCAUGUGAUAACAUGGGAGGAUAUACGAGGACGAUAGUCAAGGUAGAAGGCCUAAAGA [Garnet 71] | 97.3 nM | 32.1 nM
AAUAACAAAAGAAAGGAUAUGCGCACAGGAACAUGAGGAUCACCCAUGUGGCCCGAAAGGGCAUAGCAGAAGGUUCACACGCAUA [Default title] | 32.7 nM | 42 nM
AACAAUCUAUCUGAGGAUAUGUGUCGAAAGACAUGAGGAUCACCCAUGUGAAAACAUGGGAAAACACAGAAGGCAGAUAGAUUGA [SS2: 1152] | 54.9 nM | 33.2 nM
AUAAAACAUGAGGAUCACCCAUGUAAAAAAGCAUGAGGAUAUAUAAAAAGAAAAAGAAGAAUAGAAGGCAUAGUAA [JR_SS001_Sub1222] | 71.4 nM | 52.1 nM
AGAAAUAAAAGGCAGGAUAUCCAAAAAAAAACAUGAGGAUCACCCAUGUAAAAAAAAAAAAAAUGGGAGAAGGGCCAAAUAAAGA [Mat - Same State 2 - Eli mod - D88] | 16 nM | 37.5 nM
AGAAAACAUGAGGAUCACCCAUGUGACAAUAUGGGAGGAUAUACGAAGACGAAAGUCGAAGUAGAAGGCCUAAAGA [Garnet 50] | 23.4 nM | 66.7 nM
